# Source: article PMC7952604, “Structural insights into phosphatidylethanolamine formation in bacterial membrane biogenesis” (Scientific Reports, 2021)
# Square brackets hold non-standard residues; d marks the D form. Ends that are not written are not given here. * marks the point of attachment. Pyruvoyl = CC(=O)C(=O)*
# B1: E. coli PSD α-subunit, from PSD_(1–287), conjugated with 10:0/10:0 PE (domain or fragment, Escherichia coli, UniProt P0A8K1 254-287, looked up)
# chain: [Pyruvoyl]TVINLFAPGKVNLVEQLESLSVTKIGQPLAVST
# modifications: not fully specified (residue 1); also: 10:0/10:0 PE linked to Pvl-254 by reduced Schiff base
# notes: α-chain of E. coli phosphatidylserine decarboxylase, residues 254-287 of the construct PSD_(1–287); also called 10PE-conjugated α-chain
# B2: E. coli phosphatidylserine decarboxylase (PSD) β-subunit, from PSD_(1–287) (domain or fragment, Escherichia coli, UniProt P0A8K1 1-253, looked up)
# chain: MLNSFKLSLQYILPKLWLTRLAGWGASKRAGWLTKLVIDLFVKYYKVDMKEAQKPDTASYRTFNEFFVRPLRDEVRPIDTDPNVLVMPADGVISQLGKIEEDKILQAKGHNYSLEALLAGNYLMADLFRNGTFVTTYLSPRDYHRVHMPCNGILREMIYVPGDLFSVNHLTAQNVPNLFARNERVICLFDTEFGPMAQILVGATIVGSIETVWAGTITPPREGIIKRWTWPAGENDGSVALLKGQEMGRFKLG
# notes: Made as one proenzyme chain (residues 1-287 with a C-terminal His6 tag) that cuts itself; the β-chain is the N-terminal product; also called β-chain; beta chain; source: E. coli BL21(DE3), DDM-solubilised, purified (HisTrap, SEC) as auto-cleaved PSD_(1–287)
# B3: E. coli PSD_(1–287) αβ-heterodimer, apo (complex, Escherichia coli)
# chain 1: B2 chain
# chain 2: STVINLFAPGKVNLVEQLESLSVTKIGQPLAVST
# modifications: pyruvoyl residue (Pvl-254) at the N-terminus, formed from Ser-254 on auto-cleavage
# notes: β-chain of E. coli phosphatidylserine decarboxylase, residues 1-253; α-chain of E. coli phosphatidylserine decarboxylase, residues 254-287; The unit that pairs with itself into the (αβ)2 heterotetramer; also called Apo-PSD1; Apo-PSD2; source: E. coli BL21(DE3), DDM-solubilised, purified (HisTrap, SEC)
# B4: 8PE-PSD: αβ-heterodimer of E. coli PSD_(1–287) with 8:0/8:0 PE linked to Pvl-254 (complex, Escherichia coli)
# chain 1: B2 chain
# chain 2: B3 chain 2
# modifications: 8:0/8:0 PE covalently linked to the pyruvoyl residue Pvl-254 (reduced Schiff base)
# notes: β-chain of E. coli phosphatidylserine decarboxylase, residues 1-253; α-chain of E. coli phosphatidylserine decarboxylase, residues 254-287; source: E. coli BL21(DE3), purified PSD_(1–287), conjugated with 8PE by NaCNBH3-dependent reduction of the Schiff base
# B5: 10PE-PSD: αβ-heterodimer of E. coli PSD_(1–287) with 10:0/10:0 PE linked to Pvl-254 (complex, Escherichia coli)
# chain 1: B2 chain
# chain 2: B3 chain 2
# modifications: 10:0/10:0 PE covalently linked to the pyruvoyl residue Pvl-254 (reduced Schiff base)
# notes: β-chain of E. coli phosphatidylserine decarboxylase, residues 1-253; α-chain of E. coli phosphatidylserine decarboxylase, residues 254-287
# B6: E. coli phosphatidylserine decarboxylase (PSD) α-subunit, from PSD_(1–287), apo (domain or fragment, Escherichia coli, UniProt P0A8K1 254-287, looked up)
# chain: [Pyruvoyl]TVINLFAPGKVNLVEQLESLSVTKIGQPLAVST
# notes: No removal of the His6 tag is described; also called α-chain; alpha chain; source: E. coli BL21(DE3), DDM-solubilised, purified (HisTrap, SEC) as auto-cleaved PSD_(1–287)
# B7: E. coli PSD α-subunit, from PSD_(1–287), conjugated with 8:0/8:0 PE (domain or fragment, Escherichia coli, UniProt P0A8K1 254-287, looked up)
# chain: [Pyruvoyl]TVINLFAPGKVNLVEQLESLSVTKIGQPLAVST
# modifications: not fully specified (residue 1); also: 8:0/8:0 PE linked to Pvl-254 by reduced Schiff base
# notes: α-chain of E. coli phosphatidylserine decarboxylase, residues 254-287 of the construct PSD_(1–287); also called 8PE-conjugated α-chain; source: E. coli BL21(DE3), purified PSD_(1–287), conjugated with 8PE by NaCNBH3-dependent reduction of the Schiff base
# How the values were obtained:
# [1] = biological target: T1, PSD1–287 (Escherichia coli, UniProt P0A8K1); test: Schiff base reduction with NaCNBH3, MALDI-TOF; type: binding; details: 1 mM lipid, 50 mM NaCNBH3, 37 °C, 14 h, pH 7.5, covalent, decarboxylated
# T1 construct: gene psd
# [2] = biological target: T2, PSD1–322 (Escherichia coli, UniProt P0A8K1, H144N); test: Schiff base reduction with NaCNBH3, MALDI-TOF; type: binding; details: 1 mM lipid, 50 mM NaCNBH3, 37 °C, 15 h; covalent; active site Pvl-254
# T2 construct: gene psd; full length (1-322), C-terminal His6 tag, auto-cleaved 253/254 with Ser254 turned to pyruvoyl, expressed in E. coli BL21(DE3), solubilised in DDM
# T2 sequence (P0A8K1 1-253 H144N): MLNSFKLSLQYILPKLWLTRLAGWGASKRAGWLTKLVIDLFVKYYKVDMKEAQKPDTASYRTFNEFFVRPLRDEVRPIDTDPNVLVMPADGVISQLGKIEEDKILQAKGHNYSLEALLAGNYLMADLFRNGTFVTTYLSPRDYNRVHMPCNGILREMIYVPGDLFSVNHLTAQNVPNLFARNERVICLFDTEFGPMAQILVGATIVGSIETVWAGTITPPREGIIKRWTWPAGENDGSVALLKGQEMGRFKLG
# T2 sequence (P0A8K1 254-322): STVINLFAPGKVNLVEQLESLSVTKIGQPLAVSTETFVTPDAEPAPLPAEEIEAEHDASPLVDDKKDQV
# [3] = biological target: T3, PSD1–322 (Escherichia coli, UniProt P0A8K1, H144A); test: Schiff base reduction with NaCNBH3, MALDI-TOF; type: binding; details: 1 mM lipid, 50 mM NaCNBH3, 37 °C, 15 h; covalent; active site Pvl-254
# T3 construct: gene psd; full length (1-322), C-terminal His6 tag, auto-cleaved 253/254 with Ser254 turned to pyruvoyl, expressed in E. coli BL21(DE3), solubilised in DDM
# T3 sequence (P0A8K1 254-322): as above
# T3 sequence (P0A8K1 1-253 H144A): as the sequence (P0A8K1 1-253 H144N) above, with N144A counted along it
# [4] = biological target: T1, PSD1–287; test: X-ray structure ([…] Å); NaCNBH3 reduction, MALDI-TOF; type: binding; details: 1 mM lipid, 50 mM NaCNBH3, 37 °C, 14 h, pH 7.5; covalent; reduced Schiff base to Pvl-254
# [5] = biological target: B2; test: crystal structure; PE-conjugated PSD_(1–287) in DDM; sitting drop vapor diffusion at 20 °C; 8PE-PSD (2.12 Å) and 10PE-PSD (2.70 Å); details: both partners purified
# [6] = biological target: the molecule itself; test: crystal structure; apo PSD_(1–287) in DDM; sitting drop vapor diffusion at 20 °C; two crystal forms, Apo-PSD1 (1.90 Å) and Apo-PSD2 (2.63 Å)
# [7] = biological target: the molecule itself; test: crystal structure; PE-conjugated PSD_(1–287) in DDM; sitting drop vapor diffusion at 20 °C; 8PE-PSD (2.12 Å) and 10PE-PSD (2.70 Å)
# [8] = biological target: B2; test: crystal structure; apo PSD_(1–287) in DDM; sitting drop vapor diffusion at 20 °C; two crystal forms, Apo-PSD1 (1.90 Å) and Apo-PSD2 (2.63 Å); details: both partners purified
molecule,measurement,setting,value
"CCCCCCCCCCCCCC(=O)OC[C@H](COP(=O)(O)OC[C@H](N)C(=O)O)OC(=O)CCCCCCCCCCCCC [14PS, 14:0/14:0 PS]",% conjugation,[1]; trapped as 14PE adduct of Pvl-254,94%
"CCCCCCCCCC(=O)OC[C@H](COP(=O)(O)OC[C@H](N)C(=O)O)OC(=O)CCCCCCCCC [10PS, 10:0/10:0 PS]",% conjugation,[1]; trapped as 10PE adduct of Pvl-254,97%
"CCCCCCCC(=O)OC[C@H](COP(=O)(O)OCCN)OC(=O)CCCCCCC [8PE, 8:0/8:0 PE]","Schiff base reduction with NaCNBH3, MALDI-TOF",[2],"these proteins were able to form an adduct with 8PE, albeit at a reduced efficiency"
same,"Schiff base reduction with NaCNBH3, MALDI-TOF",[3],"these proteins were able to form an adduct with 8PE, albeit at a reduced efficiency"
same,% conjugation,[4],98%
B1,binding result,[5],binds
B2,binding result,[6],binds
B3,stoichiometry N,[6],2 αβ-heterodimers
B4,stoichiometry N,[7],2 αβ-heterodimers
B5,stoichiometry N,[7],2 αβ-heterodimers
B6,binding result,[8],binds
B7,binding result,[5],binds
